From patent US20080200416A1 (Stanford University, published 2008)

Target: T1, SHP-2 (mouse, UniProt P35235 2-593, limits assumed)
T1 construct: Endogenous protein probed in anti-Lck immunoprecipitates; also called tyrosine phosphatase SHP-2
T1 sequence (looked up): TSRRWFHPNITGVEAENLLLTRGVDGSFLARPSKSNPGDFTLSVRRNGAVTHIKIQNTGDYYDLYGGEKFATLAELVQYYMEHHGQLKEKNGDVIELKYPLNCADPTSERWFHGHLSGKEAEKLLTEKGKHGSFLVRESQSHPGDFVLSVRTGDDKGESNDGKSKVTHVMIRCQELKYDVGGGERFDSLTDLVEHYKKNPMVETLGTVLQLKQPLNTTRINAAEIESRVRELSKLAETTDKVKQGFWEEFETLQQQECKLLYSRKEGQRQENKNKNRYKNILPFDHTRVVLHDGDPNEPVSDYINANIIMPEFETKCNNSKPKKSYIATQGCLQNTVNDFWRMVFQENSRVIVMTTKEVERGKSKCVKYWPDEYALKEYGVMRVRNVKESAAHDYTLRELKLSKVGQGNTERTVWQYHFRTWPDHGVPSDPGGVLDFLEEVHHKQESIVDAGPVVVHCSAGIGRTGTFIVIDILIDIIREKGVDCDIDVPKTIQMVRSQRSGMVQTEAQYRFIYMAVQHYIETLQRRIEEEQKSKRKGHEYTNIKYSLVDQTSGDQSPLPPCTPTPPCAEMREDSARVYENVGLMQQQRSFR
Assay: co-immunoprecipitation with anti-Lck from 5C.C7 T cell lysates, Western blot
Description: (A) Western blot analyses of anti-Lck immuno-precipitates to detect site-specific phosphorylation. Phosphorylation of Lck at the activating Y394 or inhibitory Y505 before antigen stimulation were probed with specific antibodies. […] Membranes were stripped and re-probed for Lck as loading controls. (B) Induction of ERK phosphorylation by the antagonist MCC 99R. Virally-infected T cells were mixed with CH27 cells alone or CH27 cells preloaded with 10 μM MCC 99R, spun down to facilitate rapid T:APC contact, incubated at 37° C. for 5 minutes, and analyzed for ERK phosphorylation by Phosphor-Flow. Cells were gated on GFP and CD4 for virally-infected T cells. […] (D) Western blot analyses of anti-Lck immuno-precipitates to detect Lck serine phosphorylation before antigen stimulation. […] Double selected 5C.C7 T cells were mixed with peptide pre-loaded CH27 cells (10 μM MCC 99R or 1 μM MCC) by quick spin and incubated at 37° C. for 5 mins. SHP-1 was co-precipitated with Lck whereas SHP-2 was undetectable under the same condition.

B1: Lck (enzyme, mouse, UniProt P06240 2-509, looked up)
chain: GCVCSSNPEDDWMENIDVCENCHYPIVPLDSKISLPIRNGSEVRDPLVTYEGSLPPASPLQDNLVIALHSYEPSHDGDLGFEKGEQLRILEQSGEWWKAQSLTTGQEGFIPFNFVAKANSLEPEPWFFKNLSRKDAERQLLAPGNTHGSFLIRESESTAGSFSLSVRDFDQNQGEVVKHYKIRNLDNGGFYISPRITFPGLHDLVRHYTNASDGLCTKLSRPCQTQKPQKPWWEDEWEVPRETLKLVERLGAGQFGEVWMGYYNGHTKVAVKSLKQGSMSPDAFLAEANLMKQLQHPRLVRLYAVVTQEPIYIITEYMENGSLVDFLKTPSGIKLNVNKLLDMAAQIAEGMAFIEEQNYIHRDLRAANILVSDTLSCKIADFGLARLIEDNEYTAREGAKFPIKWTAPEAINYGTFTIKSDVWSFGILLTEIVTHGRIPYPGMTNPEVIQNLERGYRMVRPDNCPEELYHLMMLCWKERPEDRPTFDYLRSVLDDFFTATEGQYQPQP
notes: Endogenous protein in T cell lysates; the phosphorylation state varies with the condition
  binding result: no binding
